Biological target: T1, recombinant cynomolgus monkey (Macaca fascicularis) transferrin receptor 1 (cTfR1) (cynomolgus monkey (Macaca fascicularis), UniProt Q5RDH6 87-760 (Pongo abelii entry), limits assumed)
T1 construct: Recombinant protein; also called cyTfR1; cyno TfR1
T1 chain: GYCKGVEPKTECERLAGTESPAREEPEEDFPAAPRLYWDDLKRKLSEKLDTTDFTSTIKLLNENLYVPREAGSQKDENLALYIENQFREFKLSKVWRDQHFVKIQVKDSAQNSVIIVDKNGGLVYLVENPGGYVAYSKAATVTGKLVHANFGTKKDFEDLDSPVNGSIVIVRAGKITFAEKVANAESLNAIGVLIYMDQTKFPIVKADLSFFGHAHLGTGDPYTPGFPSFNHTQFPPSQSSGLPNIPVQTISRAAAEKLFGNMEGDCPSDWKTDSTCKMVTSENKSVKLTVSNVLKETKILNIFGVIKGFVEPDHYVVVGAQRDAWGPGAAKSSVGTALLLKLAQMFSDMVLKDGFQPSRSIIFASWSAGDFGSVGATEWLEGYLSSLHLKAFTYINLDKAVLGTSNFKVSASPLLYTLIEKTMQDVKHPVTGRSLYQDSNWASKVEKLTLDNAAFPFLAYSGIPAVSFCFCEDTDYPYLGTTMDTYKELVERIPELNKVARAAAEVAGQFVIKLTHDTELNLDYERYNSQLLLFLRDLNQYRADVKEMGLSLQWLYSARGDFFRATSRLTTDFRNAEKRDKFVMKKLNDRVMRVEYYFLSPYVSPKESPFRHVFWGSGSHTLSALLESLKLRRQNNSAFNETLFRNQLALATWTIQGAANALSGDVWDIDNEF
Experiment: Avg KD, antibody alone; table gives no method

B1: 15G11 (control anti-TfR1 antibody) (antibody, V domains shown)
VH: QVQLQQPGAELVKPGASVKLSCKASGYTFTSYWMHWVKQRPGQGLEWIGEINPTNGRTNYIEKFKSKATLTVDKSSSTAYMQLSSLTSEDSAVYYCARGTRAYHYWGQGTSVTVSS
VL: DIQMTQSPASLSVSVGETVTITCRASDNLYSNLAWYQQKQGKSPQLLVYDATNLADGVPSRFSGSGSGTQYSLKINSLQSEDFGTYYCQHFWGTPLTFGAGTKLELK
Kd: 1 nM

— patent US20230287108A1 (published 2023)
